Measured values as given in patent US20120220015.

Key:
[1] = target: fibrin (clot formed from purified fibrinogen with α-thrombin) (UniProt P02671)
α2-antiplasmin = target: T1, α2-antiplasmin (UniProt P08697)
T1 sequence: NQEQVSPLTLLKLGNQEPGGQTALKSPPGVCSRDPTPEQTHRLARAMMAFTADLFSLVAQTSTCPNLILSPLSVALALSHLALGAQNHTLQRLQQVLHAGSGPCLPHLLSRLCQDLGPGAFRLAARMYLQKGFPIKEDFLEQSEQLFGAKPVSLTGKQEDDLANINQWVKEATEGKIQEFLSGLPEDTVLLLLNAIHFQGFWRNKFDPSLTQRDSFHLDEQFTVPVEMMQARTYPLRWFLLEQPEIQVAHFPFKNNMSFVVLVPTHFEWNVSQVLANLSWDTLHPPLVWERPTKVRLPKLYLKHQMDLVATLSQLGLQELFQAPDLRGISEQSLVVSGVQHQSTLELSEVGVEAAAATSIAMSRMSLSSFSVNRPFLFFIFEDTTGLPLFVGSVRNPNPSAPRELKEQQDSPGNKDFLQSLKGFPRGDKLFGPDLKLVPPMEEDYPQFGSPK

Sequence of fibrin (clot formed from purified fibrinogen with α-thrombin) (P02671 36-629, chain 1 of 3): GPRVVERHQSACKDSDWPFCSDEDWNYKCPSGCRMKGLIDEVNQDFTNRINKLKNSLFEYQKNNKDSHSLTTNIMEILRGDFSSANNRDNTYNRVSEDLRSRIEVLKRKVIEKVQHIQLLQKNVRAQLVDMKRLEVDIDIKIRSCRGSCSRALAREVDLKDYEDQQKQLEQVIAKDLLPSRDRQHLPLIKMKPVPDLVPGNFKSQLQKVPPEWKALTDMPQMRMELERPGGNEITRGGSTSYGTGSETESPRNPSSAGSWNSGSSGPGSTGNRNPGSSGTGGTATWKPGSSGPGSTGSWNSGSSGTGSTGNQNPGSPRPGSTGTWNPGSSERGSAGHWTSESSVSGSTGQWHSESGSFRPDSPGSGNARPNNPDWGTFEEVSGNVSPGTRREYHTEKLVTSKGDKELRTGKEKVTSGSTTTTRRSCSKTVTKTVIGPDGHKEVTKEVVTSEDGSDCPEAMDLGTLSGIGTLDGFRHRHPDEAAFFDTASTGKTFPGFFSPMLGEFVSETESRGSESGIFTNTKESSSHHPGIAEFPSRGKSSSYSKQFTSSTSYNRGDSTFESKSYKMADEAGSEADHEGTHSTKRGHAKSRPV
Sequence of fibrin (clot formed from purified fibrinogen with α-thrombin) (chain, as listed by the source, chain 2 of 3): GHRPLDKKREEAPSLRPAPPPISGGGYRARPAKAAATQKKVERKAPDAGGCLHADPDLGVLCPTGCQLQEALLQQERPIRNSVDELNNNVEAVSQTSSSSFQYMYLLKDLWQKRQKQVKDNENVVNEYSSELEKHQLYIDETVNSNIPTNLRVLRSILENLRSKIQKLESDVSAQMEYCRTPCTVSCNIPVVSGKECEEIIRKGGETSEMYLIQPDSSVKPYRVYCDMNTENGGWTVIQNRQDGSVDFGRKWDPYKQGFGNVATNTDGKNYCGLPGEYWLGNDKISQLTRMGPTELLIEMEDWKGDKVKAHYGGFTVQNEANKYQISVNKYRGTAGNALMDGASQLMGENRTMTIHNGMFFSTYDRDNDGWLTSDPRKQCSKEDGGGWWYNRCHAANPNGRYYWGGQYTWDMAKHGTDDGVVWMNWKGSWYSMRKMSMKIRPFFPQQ
Sequence of fibrin (clot formed from purified fibrinogen with α-thrombin) (chain, as listed by the source, chain 3 of 3): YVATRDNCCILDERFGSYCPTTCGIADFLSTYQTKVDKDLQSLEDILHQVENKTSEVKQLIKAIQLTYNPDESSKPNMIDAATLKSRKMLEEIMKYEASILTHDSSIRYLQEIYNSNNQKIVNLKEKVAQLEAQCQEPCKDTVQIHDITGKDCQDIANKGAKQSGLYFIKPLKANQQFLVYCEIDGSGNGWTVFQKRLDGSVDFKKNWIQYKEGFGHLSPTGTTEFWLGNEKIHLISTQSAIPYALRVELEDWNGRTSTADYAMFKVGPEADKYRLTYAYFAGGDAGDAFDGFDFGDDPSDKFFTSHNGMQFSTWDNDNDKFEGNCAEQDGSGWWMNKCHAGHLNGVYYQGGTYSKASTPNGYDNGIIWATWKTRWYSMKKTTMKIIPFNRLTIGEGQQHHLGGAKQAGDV

human reference plasmin (commercial, human-derived plasmin)
fibrin clot lysis (decrease of turbidity at 340 nm), plasmin at 500, 250, 125 and 62 nM [1]: steeper slopes of the curves with increasing plasmin concentrations | plasmin activity (S-2403 hydrolysis at 405 nm) after 30 minutes pre-incubation with α2-AP, plasmin:α2-AP molar ratio of 1:1 (α2-antiplasmin): no plasmin activity was detected for human, BAP12-B2-150, or BAP01-B1-230 plasmin, indicating that the inhibition was complete
